Source: the nanobody polyreactivity screen of Harvey et al. (2022)

Assay: yeast display, Sf9 membrane polyspecificity reagent, FACS + sequencing; frameworks hold sequencing errors
Outline: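 Nanobodies from a synthetic yeast display library (Saccharomyces cerevisiae BJ5465), induced 36–48 hours with galactose, were stained 1 hour at 4 °C with 10% biotinylated, detergent-solubilized Sf9 membrane reagent, enriched on streptavidin microbeads, then FACS-sorted. Anti-HA (expression) and streptavidin (reagent binding) fluorescence set low and high (top ~1%) gates. Polyreactivity labels come from the gate of origin. Genes were colony-PCR amplified, MiSeq 2 × 250 sequenced and filtered by CDR length.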

Sequence | polyreactivity (PSR sort gate)
QVQLVESGGGLVQAGGSLRLSCAASGRTFASYDMGWYRQAPGKEREVVAVIRSGGSTKYADSVKGRFTISRDNAKNTVYLQMNSLKPEDTAVYYCARTYAKTYLSVYLFYYWGQGTQVTVSS | low polyreactivity
QVQLVESGGGLVQAGGSLRLSCAASGRTFATNAMGWYRQAPGKERELVADISGGGSTYYADSVKGRFTISRDNAKNTVYLQMNSLKPEDTAVYYCAARDYHWFQWYDYWGQGTQVTVSS | low polyreactivity
QVQLVESGGGLVQAGGSLRLSCAASGRTFATNAMGWYSQAPGKERELVAGINGSGSTNYADSVKGRFTISRDNAKNTVYLQMNSLKPEDTAVYYCAAYVGLYYRLHYYYWGQGTQVTVSS | low polyreactivity
QVQLVESGGGLVQAGGSLRLSCAASGRTFATNARGWYRQAPGKERELVAGINGSGSTNYADSVKGRFTISRDNAKNTVYLQMNSLKPEDTAVYYCAAYVGLYYRLHYYYWGQGTQVTVSS | low polyreactivity
QVQLVESGGGLVQAGGSLRLSCAASGRTFAVYAMGWYRQAPGKERELVAAITLGASRTYYADSVKGRFTISRDNAKNTVYLQMNSLKPEDTAVYYCNAVGRRNVDSSLNDYWGQGTQVTVSS | low polyreactivity
QVQLVESGGGLVQAGGSLRLSCAASGRTFAWNAMGWYRQAPRKERELVARIRSSGSTYYADSVKGRFTISRDNAKNTVYLQMNSLKPVDTAVYFCAADIRFWYGYYYWGQGTQVTVSS | high polyreactivity
QVQLVESGGGLVQAGGSLRLSCAASGRTFAWYAMGRYRQAHGKERELVAVIRRGSGDTYYADSVKARFTISRDNAKNTVYLQMNSLKTEDTAVYYCAAEGRFSFYGGGRTKYSRYDYWGQGTQVTVSS | high polyreactivity
QVQLVESGGGLVQAGGSLRLSCAASGRTFAWYAMGWYRQAPGKERELVAAISWSSDTTYYADSVKGRFTITRDNAKNTVYLQMNSLKPEETAVYYCAAVFQGYTRKYYYWGQGTQVTVSS | high polyreactivity
QVQLVESGGGLVQAGGSLRLSCAASGRTFAWYAMGWYRQAPGKERELVAVIRRGSGDTYYADSVKGRFTISRDNAKNTVYLQMNSLKPEDTAVYYCAAEGRFSFYGGGRPKYSRYDYWGQGTQVTVSS | high polyreactivity
QVQLVESGGGLVQAGGSLRLSCAASGRTFAYNAMGWYRQAPGKERELVAAISRRGGSTFYADSVKGRFTISRDNAKNTVYLQMNSLKPEDTAVYYCARDSYYIGRWLYYWGQGTQVTVSS | high polyreactivity
QVQLVESGGGLVQAGGSLRLSCAASGRTFAYNAMGWYRQAPGKERELVAAITFGGGSTYYADSVKGRFTISRDNAKNTVYLQMNSLKPEDTAVYYCTAERGYYYHFGYWGQGTQVTVSS | high polyreactivity
QVQLVESGGGLVQAGGSLRLSCAASGRTFAYYAMGWYRQAPGKERELVAAITQSGGRTYYADSVKGRFTISRDNAKNTVYLQMNSLKPEDTAVDYCAARRISGKWEYDYWGQGTQVTVSS | high polyreactivity
QVQLVESGGGLVQAGGSLRLSCAASGRTFCSNAMGWYRPAPGKERELVAAISNGDNTYYADSVKGRFTISRDNAKNTVYLQMNSLKPEDTAVYYCNADYTVYDTEYDYWGQGTQVTVSS | low polyreactivity
QVQLVESGGGLVQAGGSLRLSCAASGRTFDFYAMGWYRQAPGKERELVAAITFSTGSTTYADSVKGRFTISRDNAKNTVYLQMNSLKPEDTAVYYCGADGDGWWWSYVDRYDYWGQGTQVTVSS | low polyreactivity
QVQLVESGGGLVQAGGSLRLSCAASGRTFDFYVMGWYRHAPGKERELVAAISSGGSTNYADSVKGRFTISRDNAKYTVYLQMNSLKPEDTAVYYCAADPSGDYWGQGTQVTVSS | low polyreactivity
QVQLVESGGGLVQAGGSLRLSCAASGRTFDGNAMGWYRQAPGKERELVAAISKRGGTTYYADSVKGRFTISRDNAKNTVYLQMNSLKPEDTAVYYCAAPYNTYSYSEGEYWGQGTQVTVSS | low polyreactivity
QVQLVESGGGLVQAGGSLRLSCAASGRTFDGNVMGWYRQAPGKERELVAAITASGGRTYYADSVKGRFTISRDNAKNTVYLQMNSLKPEDTAVYFCAADPTYLRTLRFGSYDYWGQGTQVTVSS | high polyreactivity
QVQLVESGGGLVQAGGSLRLSCAASGRTFDGYTMGWYRQAPGKERELVAAIRRSGGSTYYADSVKGRFTISRDNAKNTVYLQINSLNPEDTAVYYCAASWRDIYRHYNVYPYDYWGQGTQVTVSS | low polyreactivity
QVQLVESGGGLVQAGGSLRLSCAASGRTFDGYVMGWYRQAPGKERELVAAISWGGSSTYYADSVKGRFTISRDNAKNTVYLQMNSLKPEDTAVYYCAKDTVPYERDYWGQGTQVTVSS | low polyreactivity
QVQLVESGGGLVQAGGSLRLSCAASGRTFDINAMGWYRQAPGKERELVAAISGRGGRTYYADSVKGRFTISRDNAKNTVYLQMNSLKPEDSAVYYCAARAQWSSLEYWGQGTQVTVSS | high polyreactivity
QVQLVESGGGLVQAGGSLRLSCAASGRTFDLNDMGWYRQAPGKERELVAGINSGGSTKYADSVKGRFTISRDNAKNTVSLQMNSLKPEDTAVYYCATRWPGGSRWPFYLTYDYWGQGTQVTVSS | low polyreactivity

Sequence | polyreactivity (PSR sort gate)
QVQLVESGGGLVQAGGSLRLSCAASGRTFDLYAMGWYRQAPGKEREFVAAISWRGGRTYYADSVKGRFTISRDNAKNTVYLQMNSQKPEDTAVYYCAARTGATSRIRFDYWGQGTQVTVSS | low polyreactivity
QVQLVESGGGLVQAGGSLRLSCAASGRTFDPNAMGWYRPAPGKERELVAAISSSAGSTYYADSVKGRFTISRDNAKNTVYLQMNSLNPEDPALYFCAAGSGTFVTRYRYGYWGQGTQVTVSS | high polyreactivity
QVQLVESGGGLVQAGGSLRLSCAASGRTFDRNAMGWYRQAPGKEREFVAAISYRGASTYADSVKGRFTISRDNAKNTVYLQMNSLKPEDTAVYYCAARVTYYGTSGYYYWGQGTQVTVSS | high polyreactivity
QVQLVESGGGLVQAGGSLRLSCAASGRTFDRNAMGWYRQAPGKERELVAAISRGGTTYYADSVKGRFTISRDNAKNTVYLQMNSLKPEDTAVYYCARVGRYRYEWGQGTQVTVSS | high polyreactivity
QVQLVESGGGLVQAGGSLRLSCAASGRTFDRNAMGWYRQAPGKERELVAAITSRGGRTYYADSVKGRFTISRDNAKNTVYLQMNSLKPEDTAVYYCNAARGWGYDSWGQGTQVTVSS | high polyreactivity
QVQLVESGGGLVQAGGSLRLSCAASGRTFDRNAMGWYRQAPGQERELVAAITSRGGRTYYADSVKGRFTISRDNEKNTVYLQMNSLKPADTAVYYCAADLFSSRVRSNFDYWGQGTQVTVSS | high polyreactivity
QVQLVESGGGLVQAGGSLRLSCAASGRTFDRYAMGWYRQAPGKERELVAAITWSGGRTYYADSVKGRFTISRDNAKNTVYLQINSLKPEDTAVYYCAAAPRSYFTSEYWGQGTQVTVSS | low polyreactivity
QVQLVESGGGLVQAGGSLRLSCAASGRTFDSNAMGWYRQAPGKERELVAAIYADSVKGRFTISRDNAKNTVYLQMNSLKPEDTAVYYCAAETYSGQTYLGEYDYWGQGTEVTVSS | low polyreactivity
QVQLVESGGGLVQAGGSLRLSCAASGRTFDTNAMGWYRQAPGKERELVAAISWSAGRTYYADSVKGRFTISRDNAKNTVYLQMNSLKPEDTAVYYCAARPPFIAYSWQKQGYYWGQGTQVTVSS | low polyreactivity
QVQLVESGGGLVQAGGSLRLSCAASGRTFDTYAMGWYRQAPGKEREFVARISYGGGITYYADSVKGRFTISRDNAKNTVYLQMNSLKPEDTAVYYCAARRFRTYDFYYWGQGTQVTVSS | high polyreactivity
QVQLVESGGGLVQAGGSLRLSCAASGRTFDVNAMGWYRQAPGKERELVAAIRISGGSTYYADSVKGRFTISRDNAKNTVYLQMNSLKPEDTAVYYCAAYERRYRNAYDYWGQGTQVTVSS | high polyreactivity
QVQLVESGGGLVQAGGSLRLSCAASGRTFDVNAMGWYRQAPGKERELVAAITWDGGSTYYADSVKGRFTISRDNAKNTVYLQMNSLKPEDTALYYCAADFIQGAWWYVTYRYTYEYWGQGTQVTVSS | low polyreactivity
QVQLVESGGGLVQAGGSLRLSCAASGRTFDVYAMGWYRQAPGKERELVATISYRSARTYYADSVKGRFTISRDNAKNTVYLQMNSLKPEDTAVYYCNAQSWRLYGHCYYWGQGTQVTVSS | high polyreactivity
QVQLVESGGGLVQAGGSLRLSCAASGRTFDWNAMGWYRQAPGKERELVAAISGGGGSTYYADSVKGRFTISRDNAKNTVYLQMNSLKPEDTEVYYCATWNYYSYHRYDYWGQGTQVTVSS | high polyreactivity
QVQLVESGGGLVQAGGSLRLSCAASGRTFDYNAMGWYRQAPGKERELVAAISGSGTRTFYADSVKGRFTISRDNAKNTVYLQMNSLKPEDTAVYYCAASHGWSKSIFYYWGQGTQVTVSS | high polyreactivity
QVQLVESGGGLVQAGGSLRLSCAASGRTFDYNAMGWYRQAPGKERELVAAISSSGGSTYYADSVKGRFTISRDNAKNTVYLQMNSLKPEDTAVYYCDKRRNLWGYEYDSWGQGTQVTVSS | high polyreactivity
QVQLVESGGGLVQAGGSLRLSCAASGRTFDYNAMVWYRQAPGKERELVAAISGSGTRTFYADSVKGRFTISRDNAKNTVYLLMNSLKPVDTAVYYCAASHGWSKSIFYYWGQGTQVTVSS | high polyreactivity
QVQLVESGGGLVQAGGSLRLSCAASGRTFDYYAMGWYRQAPGKERELVAAIRLISGNRYYADSVKGRFTISRDNAKNTVYLQMNSLKPEDTAVYYCAARSDGVPSLYGGMDYWRQGTQVTVSS | low polyreactivity
QVQLVESGGGLVQAGGSLRLSCAASGRTFEDYTMGWYRQAPGKERELVAAITGGGSTNYADSVKGRFTISRDNAKNTVYLQMNSLKPEDTAVYYCAARRKGGHISYGYDYWGQGTQVTVSS | high polyreactivity
QVQLVESGGGLVQAGGSLRLSCAASGRTFEGNAMGWYRQAPGKERELVAAISWSGGSTYYANSVKGRFTISRDNAKNTVYLQMNSLKPEDTAVYYCAAVPVHTGSLYWGFTTGYDYWGQGTQVTVSS | low polyreactivity
